Paper PMC7026339, “Human bone morphogenetic protein-2 (hBMP-2) characterization by physical–chemical, immunological and biological assays” (AMB Express, 2020)

Target: the molecule itself
Test: SDS-PAGE and Western blotting under non-reducing conditions; 15% acrylamide gel, Coomassie Blue G stain; Western blot with anti-hBMP-2 rabbit IgG; non-reducing conditions; shows the disulfide-linked dimer

Protein	stoichiometry N
CHO-derived hBMP-2 (Infuse, Medtronic), 114 amino acid glycosylated subunit (form A) (natural protein, human, UniProt P12643 283-396, looked up, glycosylated at one site with high-mannose-type glycans, human bone morphogenetic protein-2, authentic mature protein of 114 AA without initial Met (backbone 12,905 Da); Infuse is a disulfide-linked dimeric protein with two major subunit species of 114 and 131 amino acids; this molecule is the 114 AA subunit; also called 14,377 Da form; 114 AA monomer) QAKHKQRKRLKSSCKRHPLYVDFSDVGWNDWIVAPPGYHAFYCHGECPFPLADHLNSTNHAIVQTLVNSVNSKIPKACCVPTELSAISMLYLDENEKVVLKNYQDMVVEGCGCR	2
E. coli-derived methionyl-human bone morphogenetic protein-2 (met-hBMP-2, GenScript) (natural protein, initial methionine of methionyl-hBMP-2 (printed as 'initial Met'); human bone morphogenetic protein-2, mature protein of 114 AA (theoretical backbone 12,905 Da without the initial Met; 13,036 Da with it); theoretical mass of the dimer 26,072 Da; also called E. coli-derived hBMP-2; GenScript preparation; source: bought: GenScript (from E. coli), lyophilized, reconstituted in 20 mM acetic acid) MQAKHKQRKRLKSSCKRHPLYVDFSDVGWNDWIVAPPGYHAFYCHGECPFPLADHLNSTNHAIVQTLVNSVNSKIPKACCVPTELSAISMLYLDENEKVVLKNYQDMVVEGCGCR	2
